Drawing on publication PMC3688580, “Crystal Structure, SAXS and Kinetic Mechanism of Hyperthermophilic ADP-Dependent Glucokinase from Thermococcus litoralis Reveal a Conserved Mechanism for Catalysis” (PLoS ONE, 2013), this text covers Km for one protein.

Substrate in the data set: Nc1ncnc2c1ncn2[C@@H]1O[C@H](COP(=O)(O)OP(=O)(O)O)[C@@H](O)[C@H]1O
In words: purified protein. The note with it: co-substrate D-glucose varied, Mg2+ (constant free Mg2+), 25 mM Hepes pH 7.8, 40 °C, ordered Bi-Bi, first substrate. It counts as biochemical, Thermococcus litoralis.

B1: TlGK (ADP-dependent glucokinase from Thermococcus litoralis) (Thermococcus litoralis DSM 5473) (protein)
chain: MKESLKDRIRLWKRLYVNAFENALNAIPNVKGVLLAYNTNIDAIKYLDKDDLEKRVTEIGKEKVFEIIENPPEKISSIEELLGGILRSIKLGKAMEWFVESEEVRRYLREWGWDELRIGGQAGIMANLLGGVYRIPTIVHVPQNPKLQAELFVDGPIYVPVFEGNKLKLVHPKDAIAEEEELIHYIYEFPRGFQVFDVQAPRENRFIANADDYNARVYMRREFREGFEEITRNVELAIISGLQVLKEYYPDGTTYRDVLDRVESHLNILNRYNVKSHFEFAYTANRRVREALVELLPKFTSVGLNEVELASIMEIIGDEELAKEVLEGHIFSVIDAMNVLMDETGIERIHFHTYGYYLALTQYRGEEVRDALLFASLAAAAKAMKGNLERIEQIRDALSVPTNERAIVLEEELEKEFTEFENGLIDMVDRQLAFVPTKIVASPKSTVGIGDTISSSAFVSEFGMRKR
notes: recombinant, purified from LB culture as in Merino et al. (heat shock, ammonium sulfate, two chromatographic steps); two-domain enzyme
B1: the Km (as a rule, the substrate concentration at which the rate is half of its maximum) worked out at 8.6 µM.
